Results as given in article PMC10326835 (microLife, 2023).
Where two headings read alike, the source gives them in different places.

T1: RelA (Escherichia coli, UniProt P0AG20)
T1 sequence (P0AG20 1-744): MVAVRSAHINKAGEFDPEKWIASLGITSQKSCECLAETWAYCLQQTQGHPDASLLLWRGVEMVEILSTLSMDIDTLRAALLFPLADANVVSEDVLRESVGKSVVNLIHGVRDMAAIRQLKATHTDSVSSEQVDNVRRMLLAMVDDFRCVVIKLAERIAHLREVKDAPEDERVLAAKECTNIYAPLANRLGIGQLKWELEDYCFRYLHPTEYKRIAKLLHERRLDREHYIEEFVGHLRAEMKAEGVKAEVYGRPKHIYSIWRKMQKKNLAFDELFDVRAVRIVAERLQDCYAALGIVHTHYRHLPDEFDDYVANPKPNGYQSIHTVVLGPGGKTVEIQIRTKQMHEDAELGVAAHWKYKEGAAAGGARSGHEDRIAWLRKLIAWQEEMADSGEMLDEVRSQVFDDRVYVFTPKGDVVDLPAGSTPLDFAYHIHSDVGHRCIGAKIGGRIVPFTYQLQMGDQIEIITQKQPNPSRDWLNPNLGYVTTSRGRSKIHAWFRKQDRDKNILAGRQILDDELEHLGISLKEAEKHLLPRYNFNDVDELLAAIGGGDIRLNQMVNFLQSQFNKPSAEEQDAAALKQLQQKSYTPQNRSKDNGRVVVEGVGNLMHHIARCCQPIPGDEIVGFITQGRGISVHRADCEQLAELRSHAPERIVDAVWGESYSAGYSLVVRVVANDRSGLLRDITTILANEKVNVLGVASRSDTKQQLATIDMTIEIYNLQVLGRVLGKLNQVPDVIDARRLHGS

T2: ^strepLpxA (E. coli, UniProt P0A722 1-262)
T2 sequence: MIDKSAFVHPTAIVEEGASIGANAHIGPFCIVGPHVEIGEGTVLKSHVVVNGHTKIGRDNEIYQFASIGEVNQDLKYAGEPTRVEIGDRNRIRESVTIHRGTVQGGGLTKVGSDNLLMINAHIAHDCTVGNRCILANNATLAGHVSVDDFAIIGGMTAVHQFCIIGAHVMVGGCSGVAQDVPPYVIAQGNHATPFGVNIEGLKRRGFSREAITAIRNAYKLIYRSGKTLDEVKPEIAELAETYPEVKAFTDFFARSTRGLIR


Tests used:
RelA = molecular target: T1, RelA; assay: DRaCALA with […]-ppGpp in overexpression lysate; assay type: cell-based
SpeF = SpeF (Escherichia coli, UniProt P24169); assay: DRaCALA with […]-ppGpp in overexpression lysate; assay type: cell-based
SpeF, sequence (P24169 whole entry): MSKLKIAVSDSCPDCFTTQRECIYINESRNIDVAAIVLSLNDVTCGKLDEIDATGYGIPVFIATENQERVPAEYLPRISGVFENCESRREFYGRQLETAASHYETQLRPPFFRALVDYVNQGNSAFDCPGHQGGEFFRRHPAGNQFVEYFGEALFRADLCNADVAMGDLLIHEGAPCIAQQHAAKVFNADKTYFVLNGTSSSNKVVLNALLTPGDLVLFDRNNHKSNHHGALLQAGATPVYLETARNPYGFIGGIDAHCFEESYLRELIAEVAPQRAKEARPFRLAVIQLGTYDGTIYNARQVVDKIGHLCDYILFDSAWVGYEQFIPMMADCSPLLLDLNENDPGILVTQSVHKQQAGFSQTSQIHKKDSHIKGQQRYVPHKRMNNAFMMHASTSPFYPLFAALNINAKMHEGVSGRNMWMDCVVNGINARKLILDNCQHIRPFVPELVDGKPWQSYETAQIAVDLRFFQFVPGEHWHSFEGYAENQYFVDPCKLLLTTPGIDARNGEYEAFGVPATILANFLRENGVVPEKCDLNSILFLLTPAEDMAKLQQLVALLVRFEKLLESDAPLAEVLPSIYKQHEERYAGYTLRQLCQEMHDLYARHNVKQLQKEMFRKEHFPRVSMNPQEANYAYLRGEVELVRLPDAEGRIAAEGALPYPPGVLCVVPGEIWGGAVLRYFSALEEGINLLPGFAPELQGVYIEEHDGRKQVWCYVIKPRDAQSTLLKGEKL

ObgE = ObgE (Escherichia coli, UniProt P42641); assay: DRaCALA with […]-ppGpp in overexpression lysate; assay type: cell-based
ObgE, sequence (P42641 whole entry): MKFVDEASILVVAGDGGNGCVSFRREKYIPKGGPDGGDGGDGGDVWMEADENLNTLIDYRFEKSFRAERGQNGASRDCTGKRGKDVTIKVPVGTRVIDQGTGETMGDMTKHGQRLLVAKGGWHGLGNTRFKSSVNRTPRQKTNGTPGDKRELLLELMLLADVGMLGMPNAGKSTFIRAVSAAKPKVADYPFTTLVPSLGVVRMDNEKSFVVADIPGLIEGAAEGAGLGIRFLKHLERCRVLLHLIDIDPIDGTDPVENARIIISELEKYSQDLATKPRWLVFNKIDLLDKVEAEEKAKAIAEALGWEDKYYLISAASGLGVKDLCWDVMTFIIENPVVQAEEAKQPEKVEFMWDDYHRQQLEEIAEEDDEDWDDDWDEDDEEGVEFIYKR

purified protein = substrate: CC(=O)N[C@H]1[C@@H](OP(=O)(O)OP(=O)(O)OC[C@H]2O[C@@H](n3ccc(=O)[nH]c3=O)[C@H](O)[C@@H]2O)O[C@H](CO)[C@@H](O)[C@@H]1O; assay: purified protein
^strepLpxA [1] = molecular target: T2, ^strepLpxA; assay: MST
^strepLpxA [2] = molecular target: T2, ^strepLpxA; assay: MST; remark: listed apart in the source

Row | binding result (^strepLpxA [1]) | binding result (^strepLpxA [2]) | Molecule | other results
1 |  |  | Nc1nc2c(ncn2[C@@H]2O[C@H](COP(=O)(O)OP(=O)(O)O)[C@@H](OP(=O)(O)OP(=O)(O)O)[C@H]2O)c(=O)[nH]1 [ppGpp] | % (reference binding) (RelA): 100 % (reference binding); % relative to RelA (SpeF): 73 ± 12 % relative to RelA; % relative to RelA (ObgE): 86 ± 12 % relative to RelA
2 |  |  | LpxA (Escherichia coli K-12) (protein) MIDKSAFVHPTAIVEEGASIGANAHIGPFCIVGPHVEIGEGTVLKSHVVVNGHTKIGRDNEIYQFASIGEVNQDLKYAGEPTRVEIGDRNRIRESVTIHRGTVQGGGLTKVGSDNLLMINAHIAHDCTVGNRCILANNATLAGHVSVDDFAIIGGMTAVHQFCIIGAHVMVGGCSGVAQDVPPYVIAQGNHATPFGVNIEGLKRRGFSREAITAIRNAYKLIYRSGKTLDEVKPEIAELAETYPEVKAFTDFFARSTRGLIR | Km (purified protein): 494 µM
3 | binds |  | ^HisRnhB (enzyme, E. coli, UniProt P10442 1-198, looked up, fluorescently labeled with the His-Tag Labeling Kit RED-tris-NTA) MIEFVYPHTQLVAGVDEVGRGPLVGAVVTAAVILDPARPIAGLNDSKKLSEKRRLALYEEIKEKALSWSLGRAEPHEIDELNILHATMLAMQRAVAGLHIAPEYVLIDGNRCPKLPMPAMAVVKGDSRVPEISAASILAKVTRDAEMAALDIVFPQYGFAQHKGYPTAFHLEKLAEHGATEHHRRSFGPVKRALGLAS | 
4 |  | binds | ^His-SUMORnhB (enzyme, E. coli, UniProt P10442 1-198, looked up, fluorescently labeled with the His-Tag Labeling Kit RED-tris-NTA) MIEFVYPHTQLVAGVDEVGRGPLVGAVVTAAVILDPARPIAGLNDSKKLSEKRRLALYEEIKEKALSWSLGRAEPHEIDELNILHATMLAMQRAVAGLHIAPEYVLIDGNRCPKLPMPAMAVVKGDSRVPEISAASILAKVTRDAEMAALDIVFPQYGFAQHKGYPTAFHLEKLAEHGATEHHRRSFGPVKRALGLAS | 
5 |  | binds | ^His-SUMORnhA (enzyme, E. coli, UniProt P0A7Y4 1-155, looked up, fluorescently labeled with the His-Tag Labeling Kit RED-tris-NTA) MLKQVEIFTDGSCLGNPGPGGYGAILRYRGREKTFSAGYTRTTNNRMELMAAIVALEALKEHCEVILSTDSQYVRQGITQWIHNWKKRGWKTADKKPVKNVDLWQRLDAALGQHQIKWEWVKGHAGHPENERCDELARAAAMNPTLEDTGYQVEV | 
6 | binds |  | ^HisRnhA (enzyme, E. coli, UniProt P0A7Y4 1-155, looked up, fluorescently labeled with the His-Tag Labeling Kit RED-tris-NTA) MLKQVEIFTDGSCLGNPGPGGYGAILRYRGREKTFSAGYTRTTNNRMELMAAIVALEALKEHCEVILSTDSQYVRQGITQWIHNWKKRGWKTADKKPVKNVDLWQRLDAALGQHQIKWEWVKGHAGHPENERCDELARAAAMNPTLEDTGYQVEV | 
